Data on 2 proteins can be found in article PMC3549664.

Data set [1] in a line: Coomassie of high salt extract, hK18 blot. To be noted: glycan lost; control: hK18-WT mouse line.
A short description of data set [2]: immunofluorescence of liver and pancreas, basal. To be noted: glycan lost; control: hK18 WT mice.
The nature of data set [3]: gross appearance, histology, Oil red O, PAS, insulin stain. The settings on record: glycan lost; control: hK18 WT mice.
Data set [4] in a line: survival after PUGNAc then Fas antibody. The settings on record: glycan lost; control: FVB/n and hK18 WT mice.
The nature of data set [5]: anti-K18 pS53 blot. To be noted: glycan lost; control: K18 WT transfectants.

B1: keratin 18 (K18, hK18): K18 S30/31/49A (Gly−) (protein)
parent chain: MSFTTRSTFSTNYRSLGSVQAPSYGARPVSSAASVYAGAGGSGSRISVSRSTSFRGGMGSGGLATGIAGGLAGMGGIQNEKETMQSLNDRLASYLDRVRSLETENRRLESKIREHLEKKGPQVRDWSHYFKIIEDLRAQIFANTVDNARIVLQIDNARLAADDFRVKYETELAMRQSVENDIHGLRKVIDDTNITRLQLETEIEALKEELLFMKKNHEEEVKGLQAQIASSGLTVEVDAPKSQDLAKIMADIRAQYDELARKNREELDKYWSQQIEESTTVVTTQSAEVGAAETTLTELRRTVQSLEIDLDSMRNLKASLENSLREVEARYALQMEQLNGILLHLESELAQTRAEGQRQAQEYEALLNIKVKLEAEIATYRRLLEDGEDFNLGDALDSSNSMQTIQKTTTRRIVDGKVVSETNDTKVLRH
B1: in data set [1], the expression_or_secretion result is “no change”. Besides, the “other: keratin filament organisation” value in data set [2] is recorded as “no change”. For the same protein, in data set [3], the “other: tissue injury after STZ” value is “increases”. For the same protein, the “other: mouse lethality after PUGNAc/Fas” value in data set [4] is listed as “increases”.

B2: keratin 18 (K18, hK18): K18 Gly− (protein)
parent chain: B1 parent chain
For the protein B2, the “other: K18 S34/S53 phosphorylation” value in data set [5] was “no change”.
